Data on three substances can be found in doi:10.1101/2024.05.28.596271.

Experiment [1] deals with FAM-labeled integrin β3 peptide (human). The experiment in a line: fluorescence polarisation. In general terms: In fluorescence polarisation assays a small probe gives low polarisation when free and higher when bound to something large.
The target in experiment [2] is FITC-labeled integrin β2 peptide representing both the JM and the NPxY/F regions (human). Description: fluorescence polarisation.

Substance “THD(D397K) (from UniProt P26039 1-405) (domain or fragment)” came in with a fold increase in affinity over wild-type THD in experiment [1] of 2 fold.
Turning to “THD(D397R) (from UniProt P26039 1-405) (domain or fragment)”, the fold increase in affinity over wild-type THD in experiment [1] came to 2 fold. Also, the Kd in experiment [2] is > 100 µM.
As for “talin head protein THD405d (residues 1-405, lacking F1-loop) (from UniProt P26039 1-405) (domain or fragment)”, the Kd in experiment [1] turned out to be 4.4 µM; in experiment [2], 31.9 µM.

As a reminder, the Kd is a measure of binding affinity in units of concentration. Read a low Kd as higher affinity.
